Several values for one entry are separate records, joined by “and”; a condition that tells them apart may be missing. Equal entries are not always repeated.
B1: Azurin, P00282 (parent)
chain: MLRKLAAVSLLSLLSAPLLAAECSVDIQGNDQMQFNTNAITVDKSCKQFTVNLSHPGNLPKNVMGHNWVLSTAADMQGVVTDGMASGLDKDYLKPDDSRVIAHTKLIGSGEKDSVTFDVSKLKEGEQYMFFCTFPGHSALMKGTLTLK

Variants of: B1
Settings: Pseudomonas aeruginosa (strain ATCC 15692 / DSM 22644 / CIP 104116 / JCM 14847 / LMG 12228 / 1C / PRS 101 / PAO1); pH 7.5; 20 °C; GdnHCl; Fluorescence; Tris 30 mM; reversible: Yes; structure 5AZU; whole UniProt chain shown

Variant | ddG of mutation (higher = less stable) | denaturant m value | denaturant midpoint (higher = more stable) | unfolding free energy
C132S | -6.57 kJ/mol and -8.74 kJ/mol and -4.02 kJ/mol | 5.21 kcal/mol/M and 5.82 kcal/mol/M and 4.73 kcal/mol/M | 2.09 M and 1.85 M and 2.17 M | 45.5 kJ/mol and 47.7 kJ/mol and 42.9 kJ/mol

Same assay, conditions: Pseudomonas aeruginosa (strain ATCC 15692 / DSM 22644 / CIP 104116 / JCM 14847 / LMG 12228 / 1C / PRS 101 / PAO1); pH 7.5; -15 °C; GdnHCl; Fluorescence; Tris 30 mM; NaCl 5.0 M; reversible: Yes; structure 5AZU; whole UniProt chain shown

Variant | denaturant m value | denaturant midpoint (higher = more stable) | unfolding free energy
C132S | 6.69 kcal/mol/M and 6.81 kcal/mol/M and 5.02 kcal/mol/M | 1.35 M and 1.38 M and 1.4 M | 37.9 kJ/mol and 39.3 kJ/mol and 29.3 kJ/mol

Reference: FireProtDB (doi:10.1021/bi702473g)
